# Assay results taken from patent US20200206304A1, “METHODS AND COMPOSITIONS FOR EFFICIENT DELIVERY THROUGH MULTIPLE BIO BARRIERS” (Cedars-Sinai Medical Center, priority 2017, published 2020).
# Square brackets hold non-standard residues; d marks the D form. Ends that are not written are not given here.
# B1: PMLA/LLL/D3/rhodamine (peptide)
# peptide 1: [dR][dP][dR][dT][dR][dL][dH][dT][dH][dR][dN][dR]C
# peptide 2: Leu-Leu-Leu
# modifications: not fully specified (some residues, N-terminus); also: PMLA scaffold carrying LLL (amide-linked to pendant carboxylates), D3 peptide and rhodamine, D3 Cys thioether to maleimide-PEG3400 on PMLA
# Columns and labels:
# amyloid β (Aβ) plaques [1] = target: amyloid β (Aβ) plaques (UniProt P05067); experiment: in vivo labelling of Aβ plaques after i.v. injection into APPswe/PS1ΔE9 AD mice, injected dose 2X (0.137 µmol/Kg)
# Chain of amyloid β (Aβ) plaques (P05067 672-713): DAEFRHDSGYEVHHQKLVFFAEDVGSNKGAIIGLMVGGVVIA
# amyloid β (Aβ) plaques [2] = target: amyloid β (Aβ) plaques (UniProt P05067); experiment: in vivo labelling of Aβ plaques after i.v. injection of rhodamine-labelled conjugate into APPswe/PS1ΔE9 AD mice, dose 8X; fluorescence microscopy of brain sections
# amyloid β (Aβ) plaques [3] = target: amyloid β (Aβ) plaques (UniProt P05067); experiment: in vivo labelling of Aβ plaques after i.v. injection into APPswe/PS1ΔE9 AD mice, injected dose 6X (0.411 µmol/Kg)
# amyloid β (Aβ) plaques [4] = target: amyloid β (Aβ) plaques (UniProt P05067); experiment: in vivo labelling of Aβ plaques after i.v. injection into APPswe/PS1ΔE9 AD mice, injected dose 8X (0.55 µmol/Kg)
# amyloid β (Aβ) plaques [5] = target: amyloid β (Aβ) plaques (UniProt P05067); experiment: in vivo labelling of Aβ plaques after i.v. injection into APPswe/PS1ΔE9 AD mice, injected dose 4X (0.274 µmol/Kg)
binder,measurement,setting,value
B1,Percentage of total plaques labeled by the reagents,amyloid β (Aβ) plaques [1],0%
same,Percentage of total plaques labeled by the reagents,amyloid β (Aβ) plaques [2],21.1%
same,Percentage of total plaques labeled by the reagents,amyloid β (Aβ) plaques [3],0%
same,Percentage of total plaques labeled by the reagents,amyloid β (Aβ) plaques [4],21.1%
same,Percentage of total plaques labeled by the reagents,amyloid β (Aβ) plaques [5],0%
